Source: publication PMC12415261 (Proceedings of the National Academy of Sciences of the …, 2025)

B1: Recombinant human BMP6 (mammalian expressed, glycosylated), P22004 375-513 (ligand)
chain: SASSRRRQQSRNRSTQSQDVARVSSASDYNSSELKTACRKHELYVSFQDLGWQDWIIAPKGYAANYCDGECSFPLNAHMNATNHAIVQTLVHLMNPEYVPKPCCAPTKLNAISVLYFDDNSNVILKKYRNMVVRACGCH
modifications: here or on the partner: N-linked glycosylation at Asn454 (prehelix loop)
B2: Recombinant human BMP6, mammalian expressed (glycosylated) (ligand, UniProt P22004 375-513, looked up)
chain: B1 chain
modifications: N-linked glycosylation at Asn454 (prehelical loop)
notes: mature domain of human BMP6; residues 410 to 513 resolved in the maps (82.3% of mature domain); Dimer held together by a cystine knot; also called glycosylated BMP6; source: bought: RnD (Cat. No. 507-BP), produced from CHO cells
B3: Recombinant human BMP6, mammalian expressed (glycosylated), P22004 375-513 (ligand)
chain: B1 chain
modifications: here or on the partner: N-linked glycosylation at Asn454 (prehelical loop)
B4: Deglycosylated BMP6 (BMP6 treated with PNGaseF) (ligand, human, UniProt P22004 375-513, looked up)
chain: B1 chain
modifications: glycosylation completely removed with PNGaseF
notes: mature domain of human BMP6; also called dgBMP6; source: bought: RnD (Cat. No. 507-BP), CHO; deglycosylated with rapid PNGase F (15 min at 50 °C)
B5: Recombinant human BMP6 (mammalian expressed, glycosylated) (ligand, UniProt P22004 375-513, looked up)
chain: B1 chain
modifications: N-linked glycosylation at Asn454 (prehelix loop)
notes: BMP6, human, mature domain of the precursor (residues 410 to 513 resolved in the cryoEM maps, 82.3% of the mature domain); disulfide-linked dimer; also called Bone Morphogenetic Protein 6; source: bought: RnD (Cat. No. 507-BP), produced from CHO cells
B6: Deglycosylated BMP6 (BMP6 treated with PNGaseF) (ligand, human, UniProt P22004 375-513, looked up)
chain: B1 chain
notes: BMP6, human, mature domain of the precursor, N-linked glycosylation completely removed with PNGaseF; disulfide-linked dimer; Same protein as Dm1 after PNGaseF treatment; also called dgBMP6; PNGaseF treated BMP6; source: bought: RnD (Cat. No. 507-BP), produced from CHO cells; deglycosylated with rapid PNGase F (New England Biolabs), 15 min at 50 C
B7: ActRIIB2-Fc (trap with two ActRIIB extracellular domains) (Fc fusion, human, UniProt Q13705-1 19-133, looked up)
chain: SGRGEAETRECIYYNANWELERTNQSGLERCEGEQDKRLHCYASWRNSSGTIELVKKGCWLDDFNCYDRQECVATEENPQVYFCCCEGNFCNERFTHLPEAGGPEVTYEPPPTAP
notes: signal peptide in the construct; ActRIIB (activin receptor type IIB), human, extracellular domain, residues 1 to 133, fused to an IgG1 Fc domain; The limits 1 to 133 are told for the ActRIIB-Fc fusions of this study in general; not shown: Fc (IgG1), C-terminal, kept
B8: ActRIIB2-Fc (Fc fusion, human, UniProt Q13705-1 19-133, looked up)
chain: B7 chain
notes: signal peptide in the construct; extracellular domain of human ActRIIB, residues 1 to 133; also called trap containing two ActRIIB ECDs; source: CHO cells, purified, as previously described (17, 19); not shown: Fc (IgG1), C-terminal, kept
B9: ActRIIB1-Fc (trap with a single ActRIIB extracellular domain) (Fc fusion)
chain: B7 chain
modifications: Printed range is 1-133; signal peptide 1-18 is removed. The deposited 9N4K/9MIR chains run to T134 before the linker. Human IgG1 Fc carrier is left out; the second Fc arm carries no receptor. …

What was measured:
[1] = biological target: ActRIIB1-Fc (trap with a single ActRIIB extracellular domain) (human); assay: SPR; Cytiva T-200; trap captured through its Fc on a CM4 chip with immobilised goat antihuman Fc-specific IgG (about 3,000 RU); ligand flowed, five-step twofold dilution from 5 nM; 10 mM HEPES pH 7.4, 350 mM NaCl, 3.4 mM EDTA, 0.005% P-20; 25 C; 300 s association and dissociation, 30 uL/min; 1:1 fit with mass transport limitation; triplicate
ALK2-ActRIIB-Fc = biological target: T1, ALK2-ActRIIB-Fc (human, UniProt Q04771 21-123; Q13705 19-133); assay: SPR; traps captured by goat antihuman Fc IgG on a CM4 chip; ligand flowed, five-step twofold dilution from 5 nM; HBS-EP+ (10 mM HEPES pH 7.4, 350 mM NaCl, 3.4 mM EDTA, 0.005% P-20), 25 °C; 1:1 fit with mass transport limitation; conditions: both partners purified
T1 construct: signal peptide in the construct; extracellular domain of human ActRIIB, residues 1 to 133; also called heterodimeric trap; ActRIIB-ALK2; source: CHO cells, cotransfected, purified (MabSelect SuRe protein A with pH gradient, SEC); not shown: Fc (IgG1), C-terminal, kept; copies: 1 + 1

ALK3-ActRIIB-Fc = biological target: T2, ALK3-ActRIIB-Fc (human, UniProt P36894 24-152; Q13705 19-133); assay: as above; conditions: both partners purified
T2 construct: signal peptide in the construct; extracellular domain of human ActRIIB, residues 1 to 133; also called heterodimeric trap; ActRIIB-ALK3; source: CHO cells, cotransfected, purified (MabSelect SuRe protein A, SEC); not shown: Fc (IgG1), C-terminal, kept; copies: 1 + 1

ActRIIB1-Fc (human) = assay: as above
[2] = biological target: T3, ALK3-ActRIIB-Fc (heterodimeric trap) (human, UniProt P36894 24-152; Q13705 19-133); assay: SPR; Cytiva T-200; trap captured through its Fc on a CM4 chip with immobilised goat antihuman Fc-specific IgG (about 3,000 RU); ligand flowed, five-step twofold dilution from 5 nM; 10 mM HEPES pH 7.4, 350 mM NaCl, 3.4 mM EDTA, 0.005% P-20; 25 C; 300 s association and dissociation, 30 uL/min; 1:1 fit with mass transport limitation; triplicate; conditions: both partners purified
T3 construct: signal peptide in the construct; ActRIIB, human, extracellular domain, residues 1 to 133, fused to an IgG1 Fc domain; also called ALK3-IIB-Fc; ActRIIB-ALK3; source: SEC Superdex 200 increase; not shown: Fc (IgG1), C-terminal, kept; copies: 1 + 1

[3] = biological target: T4, ALK2-ActRIIB-Fc (heterodimeric trap) (human, UniProt Q04771 21-123; Q13705 19-133); assay: as above; conditions: both partners purified
T4 construct: signal peptide in the construct; ActRIIB, human, extracellular domain, residues 1 to 133, fused to an IgG1 Fc domain; also called ALK2-IIB-Fc; ActRIIB-ALK2; source: SEC Superdex 200 increase; not shown: Fc (IgG1), C-terminal, kept; copies: 1 + 1

[4] = biological target: B5; assay: as above; conditions: both partners purified
[5] = biological target: B6; assay: as above; conditions: both partners purified
[6] = biological target: B2; assay: SPR; traps captured by goat antihuman Fc IgG on a CM4 chip; ligand flowed, five-step twofold dilution from 5 nM; HBS-EP+ (10 mM HEPES pH 7.4, 350 mM NaCl, 3.4 mM EDTA, 0.005% P-20), 25 °C; 1:1 fit with mass transport limitation; conditions: both partners purified

T3 sequence (P36894 24-152, one chain of several): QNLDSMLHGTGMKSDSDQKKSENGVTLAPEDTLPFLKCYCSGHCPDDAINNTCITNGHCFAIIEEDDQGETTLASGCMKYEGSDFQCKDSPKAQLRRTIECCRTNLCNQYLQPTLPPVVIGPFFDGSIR
T4 sequence (Q04771 21-123, one chain of several): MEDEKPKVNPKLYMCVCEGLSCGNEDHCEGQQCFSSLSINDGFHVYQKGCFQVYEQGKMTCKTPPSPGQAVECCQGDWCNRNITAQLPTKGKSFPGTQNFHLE
T2 sequence (P36894 24-152, one chain of several): as the sequence (P36894 24-152, one chain of several) above
T1 sequence (Q04771 21-123, one chain of several): as the sequence (Q04771 21-123, one chain of several) above

Binder: B1
koff [1]: 0.00234 s⁻¹
kon [1]: 2.16e+07 M⁻¹ s⁻¹

Binder: B2
Kd (ALK2-ActRIIB-Fc): 36.6 pM
Kd (ALK3-ActRIIB-Fc): 30 pM

Binder: B3
Kd (ActRIIB1-Fc (human)): 108 pM

Binder: B4
Kd (ALK2-ActRIIB-Fc): 127 pM
Kd (ALK3-ActRIIB-Fc): 35.1 pM

Binder: B5
koff [2]: 0.000423 s⁻¹
kon [2]: 1.39e+07 M⁻¹ s⁻¹
koff [3]: 0.000528 s⁻¹
kon [3]: 1.43e+07 M⁻¹ s⁻¹

Binder: B6
koff [2]: 0.000432 s⁻¹
kon [2]: 1.23e+07 M⁻¹ s⁻¹
koff [3]: 0.00147 s⁻¹
kon [3]: 1.16e+07 M⁻¹ s⁻¹

Binder: B7
koff [4]: 0.00119 s⁻¹
kon [4]: 3.17e+07 M⁻¹ s⁻¹
Kd [5]: 48.9 ± 6 pM
koff [5]: 0.00152 s⁻¹
kon [5]: 3.12e+07 M⁻¹ s⁻¹

Binder: B8
Kd [6]: 42.1 pM

Binder: B9
Kd [5]: 110 ± 14.8 pM
koff [5]: 0.00186 s⁻¹
kon [5]: 1.7e+07 M⁻¹ s⁻¹
